Source: patent US9029097

Biological target: β2AR-Rluc (human; Renilla reniformis) (UniProt P07550)
Assay: BRET2, living HEK293T cells, Iso, untagged Gβ1γ2 co-expressed

Gαs-GFP10
agonist-promoted increase in BRET: 68%
